Test results: the supplement of paper PMC12338614
± gives the uncertainty stated by the source.

B1: library; numbered along this chain (parent)
chain: MEVVDPQQLGMFTEGELMSVGMDTFIHRIDSTEVIYQPRRKRAKLIGKYLMGDLLGEGSYGKVKEVLDSETLCRRAVKILKKKKLRRIPNGEANVKKEIQLLRRLRHKNVIQLVDVLYNEEKQKMYMVMEYCVCGMQEMLDSVPEKRFPVCQAHGYFCQLIDGLEYLHSQGIVHKDIKPGNLLLTTGGTLKISDLGVAEALHPFAADDTCRTSQGSPAFQPPEIANGLDTFSGFKVDIWSAGVTLYNITTGLYPFEGDNIYKLFENIGKGSYAIPGDCGPPLSDLLKGMLEYEPAKRFSIRQIRQHSWFRKKHPPAEAPVPIPPSPDTKDRWRSMTVVPYLEDLHGADEDEDLFDIEDDIIYTQDFTVPGQVPEEEASHNGQRRGLPKAVCMNGTEAAQLSTKSRAEGRAPNPARKACSASSKIRRLSACKQQ

Variants of: B1
Test: STK11 functional score (HeLa growth suppression), rescaled enrichment; synonymous median = 1, nonsense median = 0 (normalised score)
Details: with HeLa; variant type: missense
Summary of the method: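 Functional scores are post/pre-selection log ratios corrected to wild type, rescaled to synonymous and nonsense medians, merged over codons and replicate transfections, and given bootstrapped error. They come from POPCode libraries of codon-optimised STK11 integrated by Bxb1 at an AAVS1 landing pad in HeLa, three regions each transfected three times, with BFP-negative, mCherry-positive integrants sorted by FACS and tiled gDNA amplicons sequenced on NextSeq.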

MEVVDPQQLGMFTEGELMSVGMDTFIHRIDSTEVIYQPRRKRAKLIGKYLMGDLLGEGSYGKVKEVLDSETLCRRAVKILKKKKLRRIPNGEANVKKEIQLLRRLRHKNVIQLVDVLYNEEKQKMYMVMEYCVCGMQEMLDSYPEKRFPVCQAHGYFCQLIDGLEYLHSQGIVHKDIKPGNLLLTTGGTLKISDLGVAEALHPFAADDTCRTSQGSPAFQPPEIANGLDTFSGFKVDIWSAGVTLYNITTGLYPFEGDNIYKLFENIGKGSYAIPGDCGPPLSDLLKGMLEYEPAKRFSIRQIRQHSWFRKKHPPAEAPVPIPPSPDTKDRWRSMTVVPYLEDLHGADEDEDLFDIEDDIIYTQDFTVPGQVPEEEASHNGQRRGLPKAVCMNGTEAAQLSTKSRAEGRAPNPARKACSASSKIRRLSACKQQ [V143Y] and MEVVDPQQLGMFTEGELMSVGMDTFIHRIDSTEVIYQPRRKRAKLIGKYLMGDLLGEGSYGKVKEVLDSETLCRRAVKILKKKKLRRIPNGEANVKKEIQLLRRLRHKNVIQLVDVLYNEEKQKMYMVMEYCVCGMQEMLDSSPEKRFPVCQAHGYFCQLIDGLEYLHSQGIVHKDIKPGNLLLTTGGTLKISDLGVAEALHPFAADDTCRTSQGSPAFQPPEIANGLDTFSGFKVDIWSAGVTLYNITTGLYPFEGDNIYKLFENIGKGSYAIPGDCGPPLSDLLKGMLEYEPAKRFSIRQIRQHSWFRKKHPPAEAPVPIPPSPDTKDRWRSMTVVPYLEDLHGADEDEDLFDIEDDIIYTQDFTVPGQVPEEEASHNGQRRGLPKAVCMNGTEAAQLSTKSRAEGRAPNPARKACSASSKIRRLSACKQQ [V143S] are within error of each other in STK11 functional score: 1.52 ± 0.22 for the first, 1.44 ± 0.36 for the second.

MEVVDPQQLGMFTEGELMSVGMDTFIHRIDSTEVIYQPRRKRAKLIGKYLMGDLLGEGSYGKVKEVLDSETLCRRAVKILKKKKLRRIPNGEANVKKEIQLLRRLRHKNVIQLVDVLYNEEKQKMYMVMEYCVCGMQEMLDSTPEKRFPVCQAHGYFCQLIDGLEYLHSQGIVHKDIKPGNLLLTTGGTLKISDLGVAEALHPFAADDTCRTSQGSPAFQPPEIANGLDTFSGFKVDIWSAGVTLYNITTGLYPFEGDNIYKLFENIGKGSYAIPGDCGPPLSDLLKGMLEYEPAKRFSIRQIRQHSWFRKKHPPAEAPVPIPPSPDTKDRWRSMTVVPYLEDLHGADEDEDLFDIEDDIIYTQDFTVPGQVPEEEASHNGQRRGLPKAVCMNGTEAAQLSTKSRAEGRAPNPARKACSASSKIRRLSACKQQ [V143T] and MEVVDPQQLGMFTEGELMSVGMDTFIHRIDSTEVIYQPRRKRAKLIGKYLMGDLLGEGSYGKVKEVLDSETLCRRAVKILKKKKLRRIPNGEANVKKEIQLLRRLRHKNVIQLVDVLYNEEKQKMYMVMEYCVCGMQEMLDSRPEKRFPVCQAHGYFCQLIDGLEYLHSQGIVHKDIKPGNLLLTTGGTLKISDLGVAEALHPFAADDTCRTSQGSPAFQPPEIANGLDTFSGFKVDIWSAGVTLYNITTGLYPFEGDNIYKLFENIGKGSYAIPGDCGPPLSDLLKGMLEYEPAKRFSIRQIRQHSWFRKKHPPAEAPVPIPPSPDTKDRWRSMTVVPYLEDLHGADEDEDLFDIEDDIIYTQDFTVPGQVPEEEASHNGQRRGLPKAVCMNGTEAAQLSTKSRAEGRAPNPARKACSASSKIRRLSACKQQ [V143R] are within error of each other in STK11 functional score: 1.59 ± 0.19 for the first, 1.29 ± 0.22 for the second.

MEVVDPQQLGMFTEGELMSVGMDTFIHRIDSTEVIYQPRRKRAKLIGKYLMGDLLGEGSYGKVKEVLDSETLCRRAVKILKKKKLRRIPNGEANVKKEIQLLRRLRHKNVIQLVDVLYNEEKQKMYMVMEYCVCGMQEMLDSQPEKRFPVCQAHGYFCQLIDGLEYLHSQGIVHKDIKPGNLLLTTGGTLKISDLGVAEALHPFAADDTCRTSQGSPAFQPPEIANGLDTFSGFKVDIWSAGVTLYNITTGLYPFEGDNIYKLFENIGKGSYAIPGDCGPPLSDLLKGMLEYEPAKRFSIRQIRQHSWFRKKHPPAEAPVPIPPSPDTKDRWRSMTVVPYLEDLHGADEDEDLFDIEDDIIYTQDFTVPGQVPEEEASHNGQRRGLPKAVCMNGTEAAQLSTKSRAEGRAPNPARKACSASSKIRRLSACKQQ [V143Q] and MEVVDPQQLGMFTEGELMSVGMDTFIHRIDSTEVIYQPRRKRAKLIGKYLMGDLLGEGSYGKVKEVLDSETLCRRAVKILKKKKLRRIPNGEANVKKEIQLLRRLRHKNVIQLVDVLYNEEKQKMYMVMEYCVCGMQEMLDSWPEKRFPVCQAHGYFCQLIDGLEYLHSQGIVHKDIKPGNLLLTTGGTLKISDLGVAEALHPFAADDTCRTSQGSPAFQPPEIANGLDTFSGFKVDIWSAGVTLYNITTGLYPFEGDNIYKLFENIGKGSYAIPGDCGPPLSDLLKGMLEYEPAKRFSIRQIRQHSWFRKKHPPAEAPVPIPPSPDTKDRWRSMTVVPYLEDLHGADEDEDLFDIEDDIIYTQDFTVPGQVPEEEASHNGQRRGLPKAVCMNGTEAAQLSTKSRAEGRAPNPARKACSASSKIRRLSACKQQ [V143W] are within error of each other in STK11 functional score: 0.751 ± 0.082 for the first, 0.622 ± 0.081 for the second.

First: MEVVDPQQLGMFTEGELMSVGMDTFIHRIDSTEVIYQPRRKRAKLIGKYLMGDLLGEGSYGKVKEVLDSETLCRRAVKILKKKKLRRIPNGEANVKKEIQLLRRLRHKNVIQLVDVLYNEEKQKMYMVMEYCVCGMQEMLDSNPEKRFPVCQAHGYFCQLIDGLEYLHSQGIVHKDIKPGNLLLTTGGTLKISDLGVAEALHPFAADDTCRTSQGSPAFQPPEIANGLDTFSGFKVDIWSAGVTLYNITTGLYPFEGDNIYKLFENIGKGSYAIPGDCGPPLSDLLKGMLEYEPAKRFSIRQIRQHSWFRKKHPPAEAPVPIPPSPDTKDRWRSMTVVPYLEDLHGADEDEDLFDIEDDIIYTQDFTVPGQVPEEEASHNGQRRGLPKAVCMNGTEAAQLSTKSRAEGRAPNPARKACSASSKIRRLSACKQQ [V143N]
Second: MEVVDPQQLGMFTEGELMSVGMDTFIHRIDSTEVIYQPRRKRAKLIGKYLMGDLLGEGSYGKVKEVLDSETLCRRAVKILKKKKLRRIPNGEANVKKEIQLLRRLRHKNVIQLVDVLYNEEKQKMYMVMEYCVCGMQEMLDSPPEKRFPVCQAHGYFCQLIDGLEYLHSQGIVHKDIKPGNLLLTTGGTLKISDLGVAEALHPFAADDTCRTSQGSPAFQPPEIANGLDTFSGFKVDIWSAGVTLYNITTGLYPFEGDNIYKLFENIGKGSYAIPGDCGPPLSDLLKGMLEYEPAKRFSIRQIRQHSWFRKKHPPAEAPVPIPPSPDTKDRWRSMTVVPYLEDLHGADEDEDLFDIEDDIIYTQDFTVPGQVPEEEASHNGQRRGLPKAVCMNGTEAAQLSTKSRAEGRAPNPARKACSASSKIRRLSACKQQ [V143P]
The STK11 functional score of the first is higher: 1.68 ± 0.4 for the first, -0.133 ± 0.082 for the second.

Compared with MEVVDPQQLGMFTEGELMSVGMDTFIHRIDSTEVIYQPRRKRAKLIGKYLMGDLLGEGSYGKVKEVLDSETLCRRAVKILKKKKLRRIPNGEANVKKEIQLLRRLRHKNVIQLVDVLYNEEKQKMYMVMEYCVCGMQEMLDSVHEKRFPVCQAHGYFCQLIDGLEYLHSQGIVHKDIKPGNLLLTTGGTLKISDLGVAEALHPFAADDTCRTSQGSPAFQPPEIANGLDTFSGFKVDIWSAGVTLYNITTGLYPFEGDNIYKLFENIGKGSYAIPGDCGPPLSDLLKGMLEYEPAKRFSIRQIRQHSWFRKKHPPAEAPVPIPPSPDTKDRWRSMTVVPYLEDLHGADEDEDLFDIEDDIIYTQDFTVPGQVPEEEASHNGQRRGLPKAVCMNGTEAAQLSTKSRAEGRAPNPARKACSASSKIRRLSACKQQ [P144H], MEVVDPQQLGMFTEGELMSVGMDTFIHRIDSTEVIYQPRRKRAKLIGKYLMGDLLGEGSYGKVKEVLDSETLCRRAVKILKKKKLRRIPNGEANVKKEIQLLRRLRHKNVIQLVDVLYNEEKQKMYMVMEYCVCGMQEMLDSVAEKRFPVCQAHGYFCQLIDGLEYLHSQGIVHKDIKPGNLLLTTGGTLKISDLGVAEALHPFAADDTCRTSQGSPAFQPPEIANGLDTFSGFKVDIWSAGVTLYNITTGLYPFEGDNIYKLFENIGKGSYAIPGDCGPPLSDLLKGMLEYEPAKRFSIRQIRQHSWFRKKHPPAEAPVPIPPSPDTKDRWRSMTVVPYLEDLHGADEDEDLFDIEDDIIYTQDFTVPGQVPEEEASHNGQRRGLPKAVCMNGTEAAQLSTKSRAEGRAPNPARKACSASSKIRRLSACKQQ [P144A] is higher in STK11 functional score: 0.422 ± 0.16 for the first, 1.08 ± 0.21 for the second.

MEVVDPQQLGMFTEGELMSVGMDTFIHRIDSTEVIYQPRRKRAKLIGKYLMGDLLGEGSYGKVKEVLDSETLCRRAVKILKKKKLRRIPNGEANVKKEIQLLRRLRHKNVIQLVDVLYNEEKQKMYMVMEYCVCGMQEMLDSVGEKRFPVCQAHGYFCQLIDGLEYLHSQGIVHKDIKPGNLLLTTGGTLKISDLGVAEALHPFAADDTCRTSQGSPAFQPPEIANGLDTFSGFKVDIWSAGVTLYNITTGLYPFEGDNIYKLFENIGKGSYAIPGDCGPPLSDLLKGMLEYEPAKRFSIRQIRQHSWFRKKHPPAEAPVPIPPSPDTKDRWRSMTVVPYLEDLHGADEDEDLFDIEDDIIYTQDFTVPGQVPEEEASHNGQRRGLPKAVCMNGTEAAQLSTKSRAEGRAPNPARKACSASSKIRRLSACKQQ [P144G] and MEVVDPQQLGMFTEGELMSVGMDTFIHRIDSTEVIYQPRRKRAKLIGKYLMGDLLGEGSYGKVKEVLDSETLCRRAVKILKKKKLRRIPNGEANVKKEIQLLRRLRHKNVIQLVDVLYNEEKQKMYMVMEYCVCGMQEMLDSVIEKRFPVCQAHGYFCQLIDGLEYLHSQGIVHKDIKPGNLLLTTGGTLKISDLGVAEALHPFAADDTCRTSQGSPAFQPPEIANGLDTFSGFKVDIWSAGVTLYNITTGLYPFEGDNIYKLFENIGKGSYAIPGDCGPPLSDLLKGMLEYEPAKRFSIRQIRQHSWFRKKHPPAEAPVPIPPSPDTKDRWRSMTVVPYLEDLHGADEDEDLFDIEDDIIYTQDFTVPGQVPEEEASHNGQRRGLPKAVCMNGTEAAQLSTKSRAEGRAPNPARKACSASSKIRRLSACKQQ [P144I] are within error of each other in STK11 functional score: 1 ± 0.21 for the first, 0.87 ± 0.082 for the second.

MEVVDPQQLGMFTEGELMSVGMDTFIHRIDSTEVIYQPRRKRAKLIGKYLMGDLLGEGSYGKVKEVLDSETLCRRAVKILKKKKLRRIPNGEANVKKEIQLLRRLRHKNVIQLVDVLYNEEKQKMYMVMEYCVCGMQEMLDSVDEKRFPVCQAHGYFCQLIDGLEYLHSQGIVHKDIKPGNLLLTTGGTLKISDLGVAEALHPFAADDTCRTSQGSPAFQPPEIANGLDTFSGFKVDIWSAGVTLYNITTGLYPFEGDNIYKLFENIGKGSYAIPGDCGPPLSDLLKGMLEYEPAKRFSIRQIRQHSWFRKKHPPAEAPVPIPPSPDTKDRWRSMTVVPYLEDLHGADEDEDLFDIEDDIIYTQDFTVPGQVPEEEASHNGQRRGLPKAVCMNGTEAAQLSTKSRAEGRAPNPARKACSASSKIRRLSACKQQ [P144D] and MEVVDPQQLGMFTEGELMSVGMDTFIHRIDSTEVIYQPRRKRAKLIGKYLMGDLLGEGSYGKVKEVLDSETLCRRAVKILKKKKLRRIPNGEANVKKEIQLLRRLRHKNVIQLVDVLYNEEKQKMYMVMEYCVCGMQEMLDSVEEKRFPVCQAHGYFCQLIDGLEYLHSQGIVHKDIKPGNLLLTTGGTLKISDLGVAEALHPFAADDTCRTSQGSPAFQPPEIANGLDTFSGFKVDIWSAGVTLYNITTGLYPFEGDNIYKLFENIGKGSYAIPGDCGPPLSDLLKGMLEYEPAKRFSIRQIRQHSWFRKKHPPAEAPVPIPPSPDTKDRWRSMTVVPYLEDLHGADEDEDLFDIEDDIIYTQDFTVPGQVPEEEASHNGQRRGLPKAVCMNGTEAAQLSTKSRAEGRAPNPARKACSASSKIRRLSACKQQ [P144E] are within error of each other in STK11 functional score: 1.46 ± 0.29 for the first, 1.63 ± 0.2 for the second.
